Measurements reported in paper PMC5148590.

What was measured:
[1] = molecular target: Photobacterium profundum α-carbonic anhydrase (Photobacterium profundum SS9); experiment: non-reducing SDS-PAGE with protonography; purified PprCA in Laemmli loading buffer without 2-mercaptoethanol, 12% SDS gel, stained with Coomassie blue or by in-gel CO2 hydratase activity (bromothymol blue)
[2] = molecular target: Photobacterium profundum α-carbonic anhydrase (Photobacterium profundum SS9); experiment: SEC; Hiprep 16/60 Sephacryl S-200 equilibrated with 20 mM Tris pH 7.5 and 150 mM NaCl; dimer to monomers

Q: Which results are given for “Photobacterium profundum α-carbonic anhydrase (enzyme)”?
A: stoichiometry N [1]: 2; stoichiometry N [2]: 2
